Here are results for eight molecules from US20250144141A1 (CDR LIFE, published 2025).

Changes are numbered by the printed parent chain. Where two headings read alike, the source gives them in different places.

In experiment [1] the target is HLA-A*02:01/MAGE-A4 displayed on T2 cells (human). Briefly: cell-based or functional assay.
The target in experiment [2] is T1, HLA-A*02:01/MAGE-A4 complex (human, UniProt P04439 25-299 at identity 0.94); P61769 21-119).
T1 construct: Coated on ELISA plates and on a streptavidin SPR chip; a biotin tag is not described; also called HLA-A2/MAGE-A4 complex; pMHC-MAGE-A4
Nature of the experiment: SPR (Biacore T200), HLA-A*02:01/MAGE-A4 as ligand; sample kept in human serum at 37 C for 0, 7 and 24 h and injected after 1:100 dilution; signal relative to the start sample. For orientation: SPR reads the build-up and loss of mass on a sensor chip optically.

In experiment [3] the target is T1, HLA-A*02:01/MAGE-A4 complex. Nature of the experiment: direct ELISA, plate coated with HLA-A*02:01/MAGE-A4 complex, serial dilution of the Fab. In general terms: ELISA stands for enzyme-linked immunosorbent assay.
Experiment [4] shares this target. Briefly: direct ELISA, plate coated with HLA-A*02:01/MAGE-A4 complex, as in Example 6.
The target is the same in experiment [5]. Briefly: SPR (Biacore T200), HLA-A*02:01/MAGE-A4 as ligand; sample kept in human serum at 37 C for 0, 7 and 24 h and injected after 1:100 dilution; signal relative to the start sample. The source holds these as a separate data set.
Experiment [6] shares this target. Nature of the experiment: SPR.
Experiment [7] has the same target. Nature of the experiment: SPR. This is another data set of the same source.

B1: M1397 (bispecific antibody)
heavy: EVQLVESGGGLVQPGGSLRLSCAASGFTFSTYAMNWVRQAPGKGLEWVGRIRSKYNNYATYYADSVKGRFTISRDDSKNTLYLQMNSLRAEDTAVYYCVRHGNFGDSYVSWFAYWGQGTLVTVSSASTKGPSVFPLAPSSKSTSGGTAALGCLVKDYFPEPVTVSWNSGALTSGVHTFPAVLQSSGLYSLSSVVTVPSSSLGTQTYICNVNHKPSNTKVDKRVEPKSCGGGGSQSVLTQDPAVSVALGQTVRITCTADTLSRSYASWYQQKPGQAPVLVIYRDTSRPSGIPDRFSGSSSGNTASLTITGAQAEDEADYYCATRPSSGSNFQAFGGGTKLTVLGGGGGSGGGGSGGGGSGGGGSEVQLLESGGGSVQPGGSLRLSCTVSGFSLSNYAMSWVRQAPGKGLEWIGIVSSGGTTYYADSVKGRFTISRDNSKNTVYLQMNSLRAEDTASYYCAKDLYYGPNTDYSAANLWGQGTSVTVSS
light: QAVVTQEPSLTVSPGGTVTLTCGSSTGAVTTSNYANWVQQKPGKSPRGLIGGTNKRAPGVPARFSGSLLGGKAALTISGAQPEDEADYYCALWYSNHWVFGGGTKLTVLGQPKAAPSVTLFPPSSEELQANKATLVCLISDFYPGAVTVAWKADSSPVKAGVETTTPSKQSNNKYAASSYLSLTPEQWKSHRSYSCQVTHEGSTVEKTVAPTECSGGGGSQSVLTQDPAVSVALGQTVRITCTADTLSRSYASWYQQKPGQAPVLVIYRDTSRPSGIPDRFSGSSSGNTASLTITGAQAEDEADYYCATRPSSGSNFQAFGGGTKLTVLGGGGGSGGGGSGGGGSGGGGSEVQLLESGGGSVQPGGSLRLSCTVSGFSLSNYAMSWVRQAPGKGLEWIGIVSSGGTTYYADSVKGRFTISRDNSKNTVYLQMNSLRAEDTASYYCAKDLYYGPNTDYSAANLWGQGTSVTVSS
notes: Fab(scFv)2 dual pMHC-targeting T cell engager, no Fc; also called dual engager M1397; dual T cell engager M1397
Take B1: the “IFN-gamma release (T cell activation) with PBMCs and T2 cells pulsed with titrated peptide, compound at 1 nM; EC50 on the peptide concentration” value in experiment [1] stood at 5.75 nM. For the same molecule, in experiment [2], the binding result is “binds”.

B2: M0702 (Fab, V domains shown)
VH: QEQLEESGGGLVTPGTPLTLTCTASGFSLSSYAMIWVRQAPGKGLEWIGTINDGGTAFYANWVKGRFTISRTSTTVDLKMTSPTTEDTATYFCARAYGSNGDVYWGYVNLWGQGTLVTVSS
VL: ELVMTQTPASVSEPVGGTVTIKCQASQSIGSNLAWYQQKPGQPPKLLIYAAANLASGVSSRFKGSRSGTEYTLTISGVQAADAATYYCQQGYSSSNVANVFGGGTELEILR
For the molecule B2, the EC50 (read off the curve) – broadly, the concentration giving half of the maximal effect – in experiment [3] is about 0.6 nM.

B3: M0873 (antibody, V domains shown)
VH: ESQVLESGGGSVQPGGSLRLSCTVSGFSLSNYAMSWVRQAPGKGLEYIGIVSSGGTTYYASWAKGRFTISKDTSKNTVYLQMNSLRAEDTASYYCAKDLYYGPTTYSAFNLWGQGTSVTVSS
VL: SYELTQPPSVSVSPGQTASITCTADTLSRSYASWYQQKPGQSPVLVIYRDTSRPSGIPERFSGSNSGNTATLTISGTQAMDEADYYCATSDGSGSNFQLFGGGTKLTVL
Take B3: the concentration for a half-maximal effect (EC50 (read off the curve)) in experiment [4] is about 1 nM.

B4: M1403 (bispecific antibody)
heavy: EVQLVESGGGLVQPGGSLRLSCAASGFTFSTYAMNWVRQAPGKGLEWVGRIRSKYNNYATYYADSVKGRFTISRDDSKNTLYLQMNSLRAEDTAVYYCVRHGNFGDSYVSWFAYWGQGTLVTVSSASTKGPSVFPLAPSSKSTSGGTAALGCLVKDYFPEPVTVSWNSGALTSGVHTFPAVLQSSGLYSLSSVVTVPSSSLGTQTYICNVNHKPSNTKVDKRVEPKSCGGGGSSYELTQPPSVSVSPGQTASITCTADTLSRSYASWYQQKPGQSPVLVIYRDTSRPSGIPERFSGSNSGNTATLTISGTQAMDEADYYCATRPSSGSNFQAFGGGTKLTVLGGGGGGSGGGGSGGGGSGGGGSEVQLLESGGGSVQPGGSLRLSCTVSGFSLSNYAMSWVRQAPGKGLEYIGIVSSGGTTYYASWAKGRFTISRDNSKNTVYLQMNSLRAEDTASYYCAKDLYYGPTTYSAFNLWGQGTSVTVSS
light: QAVVTQEPSLTVSPGGTVTLTCGSSTGAVTTSNYANWVQQKPGKSPRGLIGGTNKRAPGVPARFSGSLLGGKAALTISGAQPEDEADYYCALWYSNHWVFGGGTKLTVLGQPKAAPSVTLFPPSSEELQANKATLVCLISDFYPGAVTVAWKADSSPVKAGVETTTPSKQSNNKYAASSYLSLTPEQWKSHRSYSCQVTHEGSTVEKTVAPTECSGGGGSSYELTQPPSVSVSPGQTASITCTADTLSRSYASWYQQKPGQSPVLVIYRDTSRPSGIPERFSGSNSGNTATLTISGTQAMDEADYYCATRPSSGSNFQAFGGGTKLTVLGGGGGGSGGGGSGGGGSGGGGSEVQLLESGGGSVQPGGSLRLSCTVSGFSLSNYAMSWVRQAPGKGLEYIGIVSSGGTTYYASWAKGRFTISRDNSKNTVYLQMNSLRAEDTASYYCAKDLYYGPTTYSAFNLWGQGTSVTVSS
notes: Fab(scFv)2 dual pMHC-targeting T cell engager, no Fc; also called dual engager M1403
Consider B4, for which the binding result in experiment [5] is “binds”.

B5: M1067 (bispecific antibody)
chain 1: SYELTQPPSVSVSPGQTASITCTADTLSRSYASWYQQKPGQSPVLVIYRDTSRPSGIPERFSGSNSGNTATLTISGTQAMDEADYYCATRPSSGSNFQLFGGGTKLTVLGGGGGGSGGGGSGGGGSGGGGSEVQLLESGGGSVQPGGSLRLSCTVSGFSLSNYAMSWVRQAPGKGLEYIGIVSSGGTTYYASWAKGRFTISKDTSKNTVYLQMNSLRAEDTASYYCAKDLYYGPTTYSAFNLWGQGTSVTVSS
chain 2: EVQLVESGGGLVQPGGSLRLSCAASGFTFSTYAMNWVRQAPGKGLEWVGRIRSKYNNYATYYADSVKGRFTISRDDSKNTLYLQMNSLRAEDTAVYYCVRHGNFGDSYVSWFAYWGQGTLVTVSSASTKGPSVFPLAPSSKSTSGGTAALGCLVKDYFPEPVTVSWNSGALTSGVHTFPAVLQSSGLYSLSSVVTVPSSSLGTQTYICNVNHKPSNTKVDKRVEPKSC
chain 3: QAVVTQEPSLTVSPGGTVTLTCGSSTGAVTTSNYANWVQQKPGKSPRGLIGGTNKRAPGVPARFSGSLLGGKAALTISGAQPEDEADYYCALWYSNHWVFGGGTKLTVLGQPKAAPSVTLFPPSSEELQANKATLVCLISDFYPGAVTVAWKADSSPVKAGVETTTPSKQSNNKYAASSYLSLTPEQWKSHRSYSCQVTHEGSTVEKTVAPTECS
Turning to B5, the affinity in experiment [6], expressed as Kd, was 0.12 nM.

B6: M1068 (bispecific antibody)
chain 1: B5 chain 1 with Y178W
chain 2: B5 chain 2
chain 3: B5 chain 3
In the case of B6, the Kd (in general, the concentration at which binding is half-saturated) in experiment [7] amounted to 1 nM.

B7: M1394 (bispecific antibody)
chain 1: SSELTQDPAVSVALGQTVRITCTADTLSRSYASWYQQKPGQAPVLVIYRDTSRPSGIPDRFSGSSSGNTASLTITGAQAEDEADYYCATRPSSGSNFQLFGGGTKLTVLGGGGGSGGGGSGGGGSGGGGSEVQLLESGGGSVQPGGSLRLSCTVSGFSLSNYAMSWVRQAPGKGLEWIGIVSSGGTTYYASWAKGRFTISRDNSKNTVYLQMNSLRAEDTASYYCAKDLYYGPNTDYSAANLWGQGTSVTVSS
chain 2: B5 chain 2
chain 3: B5 chain 3
B7 yielded a Kd in experiment [7] of 1.4 nM.

B8: M1312 (bispecific antibody)
chain 1: B7 chain 1 with R201K, N203T
chain 2: B5 chain 2
chain 3: B5 chain 3
Take B8: the Kd in experiment [7] stood at 0.8 nM.
